{"source": "the nanobody polyreactivity screen of Harvey et al. (2022)"}
{"experiment": "yeast display, Sf9 membrane polyspecificity reagent, FACS + sequencing; frameworks hold sequencing errors", "how_it_was_run": "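A synthetic nanobody library was expressed on Saccharomyces cerevisiae BJ5465 by galactose induction for 36–48 hours. The library was stained for 1 hour at 4 °C with 10% biotinylated, detergent-solubilized Sf9 membrane reagent and enriched with streptavidin microbeads before FACS. Low and high (top ~1%) gates were set on anti-HA fluorescence for expression and streptavidin fluorescence for reagent binding, and each polyreactivity label reflects the gate of origin.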"}
{"sequence": "QVQLVESGGGLVQAGGSLRLSCAASGTTFNAYAMGWYRQAPGKDRELVAAISTSGGRTYYADSVKGRYTISRDNAKNTVYLQMNSLKPEDTAVNYCAAVLGRSPGLNYWGQGTQVTVSS", "polyreactivity (PSR sort gate)": "high polyreactivity"}
{"sequence": "QVQLVESGGGLVQAGGSLRLSCAASGRTFLAYAMGWYRQAPGKERELVAAISKSGGRTYYADSVKGRFTISRDNAKNTVYLQMNSLKPEDTAVYYCAADKQAYVTDDYWGQGTQVTVSS", "polyreactivity (PSR sort gate)": "high polyreactivity"}
{"sequence": "QVQLVESGGGLVQAGGSLRLSCAASGFIFWYNAMGWYRQAPGKERELVAAITTAGSTNYADSVKGRFTISRDNAKNTVYLQMNSLKPEDTAVYYCAAVSSYWGQGTQVTVSS", "polyreactivity (PSR sort gate)": "low polyreactivity"}
{"sequence": "QVQLVESGGGLVQAGGSLRLSCAASGRTFYTNAMGWYRQAAGKERELVAVISRGGTTYYADSVKGRFTISRDNAKNTVYLQMNSLKPEDTAVYYCAKQRPSGDSSSQMGSWGQGTQVTVSS", "polyreactivity (PSR sort gate)": "low polyreactivity"}
{"sequence": "QVQLVESGGGLVQAGGSLRLSCAASGITFSANAMGWYRQAPGKERELVATITWSGGSTYYADSVKGRFTISRDNAKNTVYLQMNSLKPEDTAVYYCNARSYDEYPYYSYNYWGQGTQVTVSS", "polyreactivity (PSR sort gate)": "low polyreactivity"}
{"sequence": "QVHLVESWGGLVQAGGSLRLSCAASGSIFYYYAMGWYRLAPGKERELVAAITSGGSTYYADSVKGRFTISRDNAKNTVYLQMNSLKPEDTAVYYCAAVFYAAYLRYVWYSYDYWGQGTQVTVSS", "polyreactivity (PSR sort gate)": "low polyreactivity"}
{"sequence": "QVQLVESGGGLVQAGGSLRLSCAASGGTFSYYAMGWYRQAPGKERELVASISTDGGSTYYADSVKGRFTISRDNAKNTVYLQMNSLKPEDTAVYYCNARPRGYSDRYGYWGQGTQVTVSS", "polyreactivity (PSR sort gate)": "high polyreactivity"}
{"sequence": "QVQLVESGGGLVQAGGSLLLSCAASGFTFGSYAMGLYRQAPGKERELVARITRGGNTYYADSVKGRFTISRDNAKNTVYLQMNSLKPVDTAVYYCNAYGRVSPLYQPYGNDAQGYYWGQGTQVTVSS", "polyreactivity (PSR sort gate)": "high polyreactivity"}
{"sequence": "QVQLVESGGGLVQAGGSLRLSCAASGRTFRAYGMGWYRQAPGKERELVAVISWRDGSTFYADSVKGRFTISRDNAKNTVYLQMNSLNPEDTAVYYCNTAYYPGNYSQYDYWGQGTQVTVSS", "polyreactivity (PSR sort gate)": "low polyreactivity"}
{"sequence": "QVQLVESGGGLVQAGGSLRLSCAASGFTFRYYAMGWYRQAPGKERELVASISGTGGRTYADSVKGRFTISRDNAKNTVYLQMNSLKPEDTAVYYCAAWSYAYYYRLRYVSHDYWGQGTQVTVSS", "polyreactivity (PSR sort gate)": "high polyreactivity"}
{"sequence": "QVQLVESGGGLVQAGGSLRLSCAASGFNCATNYMGWYRQAPGKERELVAAITKGGGRTYYADSVKGRFTISRDNAKNTVYLQMNSLKPEDTAVYYCAARQLIKYDYWGQGTQVTVSS", "polyreactivity (PSR sort gate)": "low polyreactivity"}
{"sequence": "QVQLVESGGGLVQAGGSLRLSCAASGGTFPYNAMGGYRQAPGKERELVAVITSGDGTYYADSVKGRFTISRDNAKNTVYLQMNSLKPEDTAVYYCAADYVVWFSFVYVVEYDYWGQGTQVTVSS", "polyreactivity (PSR sort gate)": "low polyreactivity"}
{"sequence": "QVQLVESGGGLVQAGGSLRLSCAASGFTFRWYTMGWYRQAPGKERELVASINWSTGTPYYADSVKGRFTISRDNAKNTVYLQMNSLNPEDTAVYYCNARFRGRVYDRFGYRGQGTQVTVSS", "polyreactivity (PSR sort gate)": "high polyreactivity"}
{"sequence": "QVQLVESGGGLVQAGGSLRLSCAASRRIYYWYVMGWYRQAPGKERELVASISWSGGSTYYADSVKGRFTISRDNAKNTVYLQMNSLKPEDTAVYYCNAGSVYTVSLPGHPYDYWGQGTQVTVSS", "polyreactivity (PSR sort gate)": "low polyreactivity"}
{"sequence": "QVQLVESGGGLVHAGGSLRLSCAASGSIFYHNPMGWYRQAPGKERELVAAISGRGGSTYYADSVKGRFTISRDNAKHTVYLQMNSLKPEDSAVYYCAADARYQNGGLYYWGQGTHVTVSS", "polyreactivity (PSR sort gate)": "high polyreactivity"}
{"sequence": "QVQLVETGGGLVQAGGSLRLSCAASGLIFYRYAMGWYRQAPGKERELVAVITRSGGNTNYADSVKGRFTISRDNAKNTVYLQMNSLKPEDTAVYYCATRGIWKKVPYYYWGQGTQVTVSS", "polyreactivity (PSR sort gate)": "high polyreactivity"}
{"sequence": "QVQLVESGGGLVQAGGSLRLSCAASGLIFGYYALGWYRQAPGKDRELVAAINSGGSTYYADTVKGRFTISRDNAKNTVYLQMNSLKPEDTPVYNCAARYYSEYDYWGHGTQVTVSS", "polyreactivity (PSR sort gate)": "low polyreactivity"}
{"sequence": "QVQLVESGGGLVQAGGSLRLSGAASGFTFFINGMGWYRQAPGKVRELVAAIRSSGASTYYADSVKGRFTISRDNAKNTVYLQMNSLKPEDTAVYYCNARSRVGNSVADYDYCGQGTQVTVSS", "polyreactivity (PSR sort gate)": "low polyreactivity"}
{"sequence": "QVQLVESGGGLVQAGGSLRLSCAASGSIFGRYGAMGWYRQAPGKERELVAAIRTSGVSTYYADSVKGRFTISRDNAKNTVYLQMNSLKPEDTAVYYCAKGYNSYNLGKYGYWGQGTQVTVSS", "polyreactivity (PSR sort gate)": "low polyreactivity"}
{"sequence": "QVQLVESGGGLVQAGGILRLSCAASGFTFISNAMGWYRQAPGKERELVAAISSSGGRTYYADSVKGRFTISRDNAKNTVYLQMNRLKPEDTAVYYCNADRSLLYSRKIEYDYWGQGTQVTVSS", "polyreactivity (PSR sort gate)": "low polyreactivity"}
{"sequence": "QVQLVESGGGLLQAGGSLRISCAASVSIFYHYAMGWYRQAPGKERELVAAISWRGGSTNYADSVKGRFTISRDNAKNTVYLQMNSLKPEDSAVYYCNAVQRRREYYWGQGTQVTVSS", "polyreactivity (PSR sort gate)": "high polyreactivity"}
{"sequence": "QVQLVESGGGLVQAGGSLRLSCAASGRTFRSNAMGWYRQAPGKEREFVAAISGRGGITYYADSVKGRFTISRDNAKNTVYLQMNSLKPEDTAVYYCNADYWQAGDYLYYFVYYGGYDYWGQGTQVTVSS", "polyreactivity (PSR sort gate)": "low polyreactivity"}
{"sequence": "QVQLVESGGGLVQAGGSLRLSCAASGRTFSYNAMGWYRQAPGKERELVAVISASGGSTYYADSVKGRFTISRDNAKNTVYLQMNSLKPEDTAVYYCAKRRSPVERYDYWGQGTQVTVSS", "polyreactivity (PSR sort gate)": "low polyreactivity"}
{"sequence": "QVQLVESGGGLVQAGGSLRLSCAASGFIFGAYTMGWYRQAPGKESELVADISRRGGTTYYADSVKGRFTISRDNAKNTVYLQMNSLKPEDTAVYYCANVANFWYNTTLRGYYYWGQGTQVSVSS", "polyreactivity (PSR sort gate)": "high polyreactivity"}
{"sequence": "QVQLVESGGGLVQAGGSLRLSCAASGSIFYWYALGWYRQAPGKERELVADITTSDGRTYYADSVKGRFTISRDNAKNTVNLQMNSLKPEDTAVYYCAADPFSGYGFQYYRGLYYWGQGTQVSVSS", "polyreactivity (PSR sort gate)": "low polyreactivity"}
{"sequence": "QVQLVESAGGLVQAGGSLRLSCAATGFIFWGNAMGWDRQAPGKERELVAGIRSLGGTTSYADSVKGRFTISRDNAKNTVYLQMNSLKPEDTAVYYCAAKYSYYTYAGDGGLFSWSYGYWGQGTQVTVSS", "polyreactivity (PSR sort gate)": "low polyreactivity"}
{"sequence": "QVQLVESGGGLVQAGGSLRLSCAASGRIFYSNVMGWYRQAPGKERELVAAISGRTGGTYYADSVKGRFTISRDNAKNTVYLQMNSLKPEDTAVYYCAARVGWNKRRYDYWGQGTQVTVSS", "polyreactivity (PSR sort gate)": "low polyreactivity"}
{"sequence": "QVQLVESGGGLVQAGGSLRLSCAASGRILTNYVMGWYRQAPGKERELVAAITDSGGITYADSVKGRFTISRDNAKNTVYLQMNSLKPEDTAVYYCAAVRFFLYYFDFSAYDYWGQGTQVTVSS", "polyreactivity (PSR sort gate)": "low polyreactivity"}
{"sequence": "QVQLVESGGGLVQAGGSLRLSCAASGRIFGGNAMGWYRKAPGTEREVVAAISWIGGTTYYADSVKGRFTISRDNAKNTVYLQMISLKPEDTAVYYCAAYRYRPHDHRYYRYDYWGQGTQVTVSS", "polyreactivity (PSR sort gate)": "high polyreactivity"}
{"sequence": "QVQLVESGGGLVQAGGSLRLSCADSGRTLVRYTMRGYRQAPGKERDLVASISQRGGTTYYADSVKGRFTISRDNAKNTVYLQMNSLKPEDTAVYYCAAGIHGRYARDWYEYWGQGTQVTVSS", "polyreactivity (PSR sort gate)": "low polyreactivity"}
{"sequence": "QVQLVESGGGLVQAGGSLRLSCADSGITFDWNTMGWYRQAPGKERELVAAITFRSGSTYYADSVKGRFTISRDNAKNTVYLQMNSLKPEDTAVYYCNKDTAYTSPRFDYWGQGTQVTVSS", "polyreactivity (PSR sort gate)": "high polyreactivity"}
{"sequence": "QVQLVESGGGLVQAGGSLSLSCAASGITFGLYAMGWYRQATGKERELVAAITSGDRTYYADSVKGRFTISRDNAKNTVYLQMISLTPEDTAVNYCNAEAWWVYYYYGTYLAGSYYWGQGTQVTVSS", "polyreactivity (PSR sort gate)": "high polyreactivity"}
{"sequence": "QVQLVESGGGLVQAGGSLRLSCAASGRTFYSYAMGWYRQAPGKEREFVAAINWSGTSTYADSVKGRFTISRDNAKNTVYLQMNSLKPEDTAVSYCAKTYRTLVRYWGQPFGYWGQGTQVTVSS", "polyreactivity (PSR sort gate)": "high polyreactivity"}
{"sequence": "QVQLVESGGGLVQAGGSLRLSCAASGFIFLYYAMGWYRQAPGKERELVAAISSSGGSTYYADSVKGRFTISRDNAKNTVYLQMNSLKPEDTAVYYCAARRKGKARVPQYDYWGQGTQVTVSS", "polyreactivity (PSR sort gate)": "high polyreactivity"}
{"sequence": "QDQLVESGGGLVQAGGSLRLSCAASGFTISSYARGWYRQAPGKERELVAAISTRGGSTYYADSVKGRFTISRDNSKNTVYLQMNSLKPEDTAVSYCATGGRGGRRYEYWGQGTQVTVSS", "polyreactivity (PSR sort gate)": "low polyreactivity"}
{"sequence": "QVQLVESGGGLVQPGGSLRLSCAASGGTFYRYAMGWYIQAPGKERELVAAISSRGGSTYYADSVKGRYTISRDNAKNTVYLQMNSLKPEDTAVYYCAALFYLTQWQYDYWGQGTQVTVSS", "polyreactivity (PSR sort gate)": "high polyreactivity"}
{"sequence": "QVQLVESGGGLVQAGGSLRLSCAASGRIYGFNTMGWYRQAPGKERELVAAITTSGVSTYYADSVKGRFTISRDNAKNTVYLQMNSLKPEDTAVYYCAARWYRTGPYKRRDYWGQGTQVTVSS", "polyreactivity (PSR sort gate)": "high polyreactivity"}
{"sequence": "QVQLVESGGGLVQAGGSLRLSCAASGYTFPQYAMRWYRQAPGKERELVAAITRRGGSTYYADSVKGRFTISRDNAKNTVYLQMNSLNPEDTAVYYGSARYYWGQGTQVTVSS", "polyreactivity (PSR sort gate)": "high polyreactivity"}
{"sequence": "QVQLVESGGGLVQAGGSLRLSCAASGSIFLYYAMGWYRQAPGKERELVAAITGGGGTNYADSVKGRFTISRDNAKNTVYLQMNSLKPEDTAVYYCAADPSGQFPYSYYNYDYDYWGQGTQVTVSS", "polyreactivity (PSR sort gate)": "low polyreactivity"}
{"sequence": "QVQLVESAGGLVQAGGSLRLSCAASGRTFTDYVMGWYRQAPGKESELVAAITSGGGTTYYADSVKGRFTISRDNAKKTVYLQMNSLKPEDTAVYYGNAVSYRRSRYWGYVYWGQGTQVTVSS", "polyreactivity (PSR sort gate)": "high polyreactivity"}
{"sequence": "QVQLVESGGGLVQAGGSLRLSCAASGSISPYYAMGWYRQEHGKEREMVAAISSGGSTYYADSVKGRFTISRDNAKNTVYLQMNSLKPEDTAVYYCAKAYNYLGYYKYLRYGKFCYWGEGTQVTVSS", "polyreactivity (PSR sort gate)": "high polyreactivity"}
{"sequence": "QVHHVESGGGLVQAGGSLRLSCAASGLTFYGYTMGRSRQAPGKERELVAAISRGTSTKYADSVKGRFTISRDNAKNTVYLQMNSLKPEETAVYYCAAKGSRSGMGYWGQGTQVTVSS", "polyreactivity (PSR sort gate)": "high polyreactivity"}
{"sequence": "QVQLVESGGGLVQAGGSLRLSCAASGIIFWDYAMGWYSQAPGKERELVAAISSSGSTTYYADSVKGRFTISRDNAKNTVYLQMNSLKPEDTAVYYCAAESLYEDDKGDYWGQGTQVTVSS", "polyreactivity (PSR sort gate)": "high polyreactivity"}
